Assay [1] addresses T1, full-length cynomologus DLL3 on transfected HEK293 cells (cynomologus, UniProt A0A2K5WSR1 27-585).
T1 construct: also called 293 cyno DLL3
T1 sequence: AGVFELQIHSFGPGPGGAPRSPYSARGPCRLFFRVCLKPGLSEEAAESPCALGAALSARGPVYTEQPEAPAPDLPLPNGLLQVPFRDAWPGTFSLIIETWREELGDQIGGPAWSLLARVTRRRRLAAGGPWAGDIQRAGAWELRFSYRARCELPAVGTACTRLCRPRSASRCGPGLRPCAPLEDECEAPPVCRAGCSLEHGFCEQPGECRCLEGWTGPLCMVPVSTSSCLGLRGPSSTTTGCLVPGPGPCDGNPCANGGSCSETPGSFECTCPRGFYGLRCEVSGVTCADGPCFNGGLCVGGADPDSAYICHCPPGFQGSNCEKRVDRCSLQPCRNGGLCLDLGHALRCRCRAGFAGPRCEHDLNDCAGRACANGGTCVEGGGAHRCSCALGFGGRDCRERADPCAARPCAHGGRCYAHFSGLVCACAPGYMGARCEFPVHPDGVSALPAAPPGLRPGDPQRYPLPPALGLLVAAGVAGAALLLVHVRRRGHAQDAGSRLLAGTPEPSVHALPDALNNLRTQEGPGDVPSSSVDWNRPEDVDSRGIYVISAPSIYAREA
Kind of assay: flow cytometry, 10 µg/ml antibody on HEK293 cells transfected with full-length cynomologus DLL3. The method, then: (§1) The four monoclonal antibodies (6-G23-F, 2-C8-A, 7-I1-B and 10-O18-A) were tested for their ability to bind to mouse and cynomologus DLL3 as well as endogenous human DLL3 by flow cytometry. For this purpose, HEK293 cells were transfected with plasmid DNA encoding full-length human, mouse or cynomologus DLL3 and used in the experiment. Briefly 10⁶ transfected HEK293 cells or NCI-H82 primary cells were added in FACS buffer PBS 0.5% BSA to the wells of a 96 well U bottom plate and purified monoclonal added to 10 μg/ml. After 30 minutes incubation at 4° C. the cells were washed 3 times in FACS buffer and incubated with a PE labelled F(ab)2 anti-mouse IgG H and L 2nd stage. After another 30 minutes incubation at 4° C. the cells were washed three times in FACS buffer and analyzed on the flow cytometer. Data are presented at the ratio of the Mean Fluorescent Intensity for the monoclonal divided by the background staining with the 2nd stage. As shown in the Table below, all of the monoclonal antibodies cross reacted with cynomologus DLL3 and detected endogenous DLL3 on NCI H82 cells but only 6-G23-F and 7-I1-B bound to mouse DLL3.
(In flow cytometry, cells or beads pass a laser one at a time.)

Assay [2] concerns the target T2, endogenous human DLL3 on NCI-H82 cells (human, UniProt Q9NYJ7 27-618).
T2 sequence (looked up): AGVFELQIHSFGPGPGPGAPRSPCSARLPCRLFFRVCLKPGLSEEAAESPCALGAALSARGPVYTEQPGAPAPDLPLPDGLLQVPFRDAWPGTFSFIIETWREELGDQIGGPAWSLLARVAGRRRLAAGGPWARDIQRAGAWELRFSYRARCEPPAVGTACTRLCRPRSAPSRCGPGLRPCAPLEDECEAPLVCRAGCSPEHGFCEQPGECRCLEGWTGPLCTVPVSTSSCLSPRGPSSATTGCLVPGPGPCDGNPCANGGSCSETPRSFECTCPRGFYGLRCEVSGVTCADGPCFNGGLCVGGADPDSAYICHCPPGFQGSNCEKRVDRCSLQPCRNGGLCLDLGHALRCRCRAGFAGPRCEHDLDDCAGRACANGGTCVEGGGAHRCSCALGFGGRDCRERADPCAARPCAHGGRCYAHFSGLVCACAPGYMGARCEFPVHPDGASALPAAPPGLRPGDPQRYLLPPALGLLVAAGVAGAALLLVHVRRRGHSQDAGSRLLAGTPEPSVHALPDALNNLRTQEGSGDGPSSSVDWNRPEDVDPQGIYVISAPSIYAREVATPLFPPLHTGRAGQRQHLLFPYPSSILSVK
The experiment in a line: cell-based or functional assay.

For assay [3], the target named is T3, full-length human DLL3 on transfected HEK293 cells (human, UniProt Q9NYJ7 27-618).
T3 construct: also called 293 hDLL3
T3 sequence: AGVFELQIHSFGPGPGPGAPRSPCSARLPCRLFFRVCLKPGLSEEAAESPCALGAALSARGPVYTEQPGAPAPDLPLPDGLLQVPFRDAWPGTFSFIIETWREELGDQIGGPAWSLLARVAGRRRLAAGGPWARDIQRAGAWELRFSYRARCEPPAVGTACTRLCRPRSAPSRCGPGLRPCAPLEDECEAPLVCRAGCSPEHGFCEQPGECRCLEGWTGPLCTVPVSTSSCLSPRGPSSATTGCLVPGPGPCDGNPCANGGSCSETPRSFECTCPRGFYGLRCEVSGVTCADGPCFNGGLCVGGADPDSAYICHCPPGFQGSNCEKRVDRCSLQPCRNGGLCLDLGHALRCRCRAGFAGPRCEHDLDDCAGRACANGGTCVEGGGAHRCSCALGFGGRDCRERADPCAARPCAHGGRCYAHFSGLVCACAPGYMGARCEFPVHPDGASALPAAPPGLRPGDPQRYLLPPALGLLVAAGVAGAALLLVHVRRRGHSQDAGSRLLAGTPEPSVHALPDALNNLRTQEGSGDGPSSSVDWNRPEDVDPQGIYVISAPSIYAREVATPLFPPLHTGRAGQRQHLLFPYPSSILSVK
Kind of assay: flow cytometry, 10 µg/ml antibody on HEK293 cells transfected with full-length human DLL3. As for the experimental part:
as §1

Assay [4] addresses T2, endogenous human DLL3 on NCI-H82 cells. The experiment in a line: cell-based or functional assay. The source holds these as a separate data set.
Assay [5] has the same target. Kind of assay: cell-based or functional assay. The source holds these as a separate data set.
The target in the next assay is T4, DLL1 (UniProt O00548 18-545, limits assumed).
T4 sequence (looked up): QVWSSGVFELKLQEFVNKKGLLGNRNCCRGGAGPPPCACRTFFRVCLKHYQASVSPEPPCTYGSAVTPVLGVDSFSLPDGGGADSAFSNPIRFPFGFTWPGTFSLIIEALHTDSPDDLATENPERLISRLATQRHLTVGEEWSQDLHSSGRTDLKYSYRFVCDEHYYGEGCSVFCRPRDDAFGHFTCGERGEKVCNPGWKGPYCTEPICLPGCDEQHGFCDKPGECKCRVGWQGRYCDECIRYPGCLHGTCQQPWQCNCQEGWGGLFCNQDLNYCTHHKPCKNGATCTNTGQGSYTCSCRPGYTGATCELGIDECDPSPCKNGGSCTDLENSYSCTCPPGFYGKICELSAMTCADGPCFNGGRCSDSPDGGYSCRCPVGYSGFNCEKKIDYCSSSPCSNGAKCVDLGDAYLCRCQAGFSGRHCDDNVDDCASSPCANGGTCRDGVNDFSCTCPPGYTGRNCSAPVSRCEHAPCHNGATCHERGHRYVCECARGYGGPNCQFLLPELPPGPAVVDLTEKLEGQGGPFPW
The experiment in a line: FIG. 7; assay not described.

In assay [6] the target is T5, full-length mouse DLL3 on transfected HEK293 cells (mouse, UniProt O88516 33-584).
T5 construct: also called 293 mDLL3
T5 sequence: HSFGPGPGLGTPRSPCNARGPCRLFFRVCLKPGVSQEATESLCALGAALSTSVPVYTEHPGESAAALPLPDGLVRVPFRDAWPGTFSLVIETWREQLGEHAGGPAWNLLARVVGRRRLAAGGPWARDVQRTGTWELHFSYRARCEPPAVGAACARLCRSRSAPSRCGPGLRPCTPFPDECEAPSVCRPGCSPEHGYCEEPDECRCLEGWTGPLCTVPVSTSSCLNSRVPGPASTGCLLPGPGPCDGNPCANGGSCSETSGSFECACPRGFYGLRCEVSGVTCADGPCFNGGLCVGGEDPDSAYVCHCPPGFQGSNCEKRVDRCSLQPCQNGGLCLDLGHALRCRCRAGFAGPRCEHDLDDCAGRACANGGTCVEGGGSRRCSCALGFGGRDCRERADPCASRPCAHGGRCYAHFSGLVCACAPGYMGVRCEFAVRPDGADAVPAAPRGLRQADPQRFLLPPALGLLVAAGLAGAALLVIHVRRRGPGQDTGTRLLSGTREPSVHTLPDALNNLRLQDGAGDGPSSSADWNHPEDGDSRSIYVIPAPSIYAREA
The experiment in a line: flow cytometry, 10 µg/ml antibody on HEK293 cells transfected with full-length mouse DLL3. The method, then:
as §1

For assay [7], the target named is T2, endogenous human DLL3 on NCI-H82 cells. The experiment in a line: flow cytometry, 10 µg/ml antibody on NCI-H82 cells (endogenous DLL3). The method, then:
as §1

In the next assay the target is DLL4 (UniProt Q9NR61 27-524, limits assumed). The experiment in a line: FIG. 7; assay not described.
Chain of DLL4 (Q9NR61 27-524 limits assumed): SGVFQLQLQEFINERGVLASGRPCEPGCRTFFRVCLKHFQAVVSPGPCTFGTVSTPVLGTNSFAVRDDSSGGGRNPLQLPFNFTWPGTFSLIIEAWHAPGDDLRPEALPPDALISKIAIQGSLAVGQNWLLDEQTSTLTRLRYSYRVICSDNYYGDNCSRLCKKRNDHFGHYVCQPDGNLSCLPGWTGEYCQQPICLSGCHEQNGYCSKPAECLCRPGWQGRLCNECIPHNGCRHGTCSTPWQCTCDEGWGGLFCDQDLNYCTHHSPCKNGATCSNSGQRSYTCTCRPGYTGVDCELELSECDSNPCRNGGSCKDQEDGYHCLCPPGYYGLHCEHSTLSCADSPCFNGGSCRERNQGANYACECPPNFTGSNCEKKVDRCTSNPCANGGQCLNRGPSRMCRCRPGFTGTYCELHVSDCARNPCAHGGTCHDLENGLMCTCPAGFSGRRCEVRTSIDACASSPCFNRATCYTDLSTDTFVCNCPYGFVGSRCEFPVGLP

B1: 7-I1-B (antibody, V domains shown)
VH: EVQLVESGGGLVKPGGSLRLSCAASGFTFSNTWMSWVRQAPGKGLEWVGRIKSKSDGGTTDYAAPVKGRFTISRDDSKNTLYLQMNSLKTEDTAVYYCTQYYWNSFDYWGQGTLVTVSS
VL: not shown
notes: Purified hybridoma monoclonal from Ablexis AlivaMAb Kappa mice; the antibody was captured on anti-mouse Fc sensors and detected with anti-mouse IgG / anti-mouse IgG1 reagents; also called 7-I1-B (10 µg/ml)
For the molecule B1, the “ratio of the Mean Fluorescent Intensity for the monoclonal divided by the background staining with the 2nd stage” value amounted to 18.7 ratio in assay [1], 9.74 ratio in assay [3], 4.7 ratio in assay [6] and 19.2 ratio in assay [7]. In addition, the “Dy light Dy658 Fluorescence (% of the Control Reference Monoclonal Antibody), quenching internalization assay on NCI-H82 cells” value in [2] was 70.1 % of the Control Reference Monoclonal Antibody. Also, the “FAB ZAP % SC16 Max Killing (saporin Fab ZAP cytotoxicity on NCI-H82 cells)” value (“FAB ZAP % SC16 Max Killing” below) in assay [4] was found to be 97 % SC16 Max Killing. Moreover, the “MFI Ratio (4° C. / 37° C. staining, 4/37 internalization assay on NCI-H82 cells)” value in assay [5] is 1.68 ratio. Moreover, in the assay with DLL1, the binding result was “no binding”.

B2: 6-G23-F (antibody, V domains shown)
VH: QVQLVQSGAEVKKPGASVKVSCKASGYTFTSYYIHWVRQAPGQGLEWMGIIDPSDGSTNYAQKFQGRVTMTRDTSTSTVYMELSSLRSEDTAVYYCARDREYNYYGLDVWGQGTTVTVSS
VL: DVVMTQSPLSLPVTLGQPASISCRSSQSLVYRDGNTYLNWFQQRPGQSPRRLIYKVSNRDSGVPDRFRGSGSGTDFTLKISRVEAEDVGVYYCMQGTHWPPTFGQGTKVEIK
notes: Purified hybridoma monoclonal from Ablexis AlivaMAb Kappa mice (human immunoglobulin repertoire); the antibody was captured on anti-mouse Fc sensors and detected with anti-mouse IgG / anti-mouse IgG1 reagents; also called 6-G23-F (10 µg/ml)
Take B2: the “ratio of the Mean Fluorescent Intensity for the monoclonal divided by the background staining with the 2nd stage” value is 13.1 ratio in assay [1], 6.33 ratio in [3], 3.97 ratio in assay [6] and 11.1 ratio in assay [7]. The “Dy light Dy658 Fluorescence (% of the Control Reference Monoclonal Antibody), quenching internalization assay on NCI-H82 cells” value in assay [2] was 76.5 % of the Control Reference Monoclonal Antibody. The “FAB ZAP % SC16 Max Killing” value in assay [4] was 94 % SC16 Max Killing. The “MFI Ratio (4° C. / 37° C. staining, 4/37 internalization assay on NCI-H82 cells)” value in assay [5] was 1.67 ratio. In addition, the binding result with DLL1 and with DLL4 was “no binding” in each case.

B3: 2-C8-A (antibody, V domains shown)
VH: EVQLVESGGGLVQPGGSQRLSCAASGFTFSSYWMNWVRQAPGKGLEWVANIKEDGSEKYYVDSVKGRFTISRDNAKNSLYLQMNSLRAEDTAVYYCARDPGWAPFDYWGQGTLVTVSS
VL: DIQMSQSPSSLSASVGDRVTITCRASQGISNYLAWFQQKPGKAPKSLIYAASSLQSGVPSKFSGSGSGTDFTLAISSLQPEDFATYYCQQYNSFPYTFGQGTTLEIK
notes: Purified hybridoma monoclonal from Ablexis AlivaMAb Kappa mice; the antibody was captured on anti-mouse Fc sensors and detected with anti-mouse IgG / anti-mouse IgG1 reagents; also called 2-C8-A (10 µg/ml)
On to B3, for which the “ratio of the Mean Fluorescent Intensity for the monoclonal divided by the background staining with the 2nd stage” value in [1] was found to be 15 ratio; in assay [3], 7.71 ratio; in assay [6], 1.5 ratio; in assay [7], 11.9 ratio. Also, in assay [2], the “Dy light Dy658 Fluorescence (% of the Control Reference Monoclonal Antibody), quenching internalization assay on NCI-H82 cells” value was 62.9 % of the Control Reference Monoclonal Antibody. Also, the “FAB ZAP % SC16 Max Killing” value in assay [4] was 89 % SC16 Max Killing. Also, in [5], the “MFI Ratio (4° C. / 37° C. staining, 4/37 internalization assay on NCI-H82 cells)” value stood at 1.76 ratio. In addition, the binding result with DLL1 and in the assay with DLL4 was “no binding” each time.

B4: 10-O18-A (antibody, V domains shown)
VH: QVQLQESGPGLVKPSETLSLTCTVSGGSINSYYWSWIRQPPGKGLEWIGYIFYSGITNYNPSLKSRVTISLDTSKNQFSLKLSSVTAADTAVYYCARIGVAGFYFDYWGQGTLVTVSS
VL: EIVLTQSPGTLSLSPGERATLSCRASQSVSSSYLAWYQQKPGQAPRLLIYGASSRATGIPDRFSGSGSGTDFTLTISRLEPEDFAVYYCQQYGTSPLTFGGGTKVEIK
notes: Purified hybridoma monoclonal from Ablexis AlivaMAb Kappa mice; the antibody was captured on anti-mouse Fc sensors and detected with anti-mouse IgG / anti-mouse IgG1 reagents; also called 10-018-A; 10-O18-A (10 µg/ml)
Take B4: the “ratio of the Mean Fluorescent Intensity for the monoclonal divided by the background staining with the 2nd stage” value in assay [1] stood at 9.85 ratio; in assay [3] it was 4.74 ratio; in [6] it was 0.99 ratio; in assay [7], 9.4 ratio. In [5], the “MFI Ratio (4° C. / 37° C. staining, 4/37 internalization assay on NCI-H82 cells)” value turned out to be 1.56 ratio. Besides, the binding result in the assay with DLL1 and with DLL4 was “no binding” throughout.

These data come from US20220348648A1 (Memorial Sloan Kettering, published 2022).
